These results are taken from patent publication US20180296694A1 (IMMUNOGEN, published 2018).

This assay deals with folate receptor alpha (FRα) on cells (human, UniProt P15328 25-234). Briefly: cell-based or functional assay.
Chain of folate receptor alpha (FRα) on cells (P15328 25-234): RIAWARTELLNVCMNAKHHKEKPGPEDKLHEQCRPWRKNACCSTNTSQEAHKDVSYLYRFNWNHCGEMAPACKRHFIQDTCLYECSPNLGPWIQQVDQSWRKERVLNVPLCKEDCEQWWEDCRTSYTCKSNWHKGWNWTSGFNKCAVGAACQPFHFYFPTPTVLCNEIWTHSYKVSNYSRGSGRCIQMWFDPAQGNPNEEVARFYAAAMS

B1: Mov19v1.6-GMBS-dAlalAla-PAB-DM1 (conjugate 4b) (antibody, human IgG1, kappa, V domains shown)
VH: QVQLVQSGAEVVKPGASVKISCKASGYTFTGYFMNWVKQSPGQSLEWIGRIHPYDGDTFYNQKFQGKATLTVDKSSNTAHMELLSLTSEDFAVYYCTRYDGSRAMDYWGQGTTVTVSS
VL: DIVLTQSPLSLAVSLGQPAIISCKASQSVSFAGTSLMHWYHQKPGQQPRLLIYRASNLEAGVPDRFSGSGSKTDFTLTISPVEAEDAATYYCQQSREYPYTFGGGTKLEIKR
modifications: D-Ala-L-Ala-PAB-DM1 linked through GMBS, about 3.5 DM/Ab
On to B1, for which the “IC50, in vitro cytotoxicity (WST-8, 5 days), Igrov-1 cells, +Block” value (shortened to “IC50 … Igrov-1 cells, +Block”) is 20 nM; the “IC50, in vitro cytotoxicity (WST-8, 5 days), Igrov-1 cells, ADC” value (“IC50 … Igrov-1 cells, ADC” below) was found to be 0.3 nM; the “IC50, in vitro cytotoxicity (WST-8, 5 days), Jeg-3 cells, +Block” value (shortened to “IC50 … Jeg-3 cells, +Block”) was 10 nM; the “IC50, in vitro cytotoxicity (WST-8, 5 days), Jeg-3 cells, ADC” value (from here on “IC50 … Jeg-3 cells, ADC”) was determined as 0.2 nM. Also, the “IC50, in vitro cytotoxicity (WST-8, 5 days), KB cells, +Block” value (from here on “IC50 … KB cells, +Block”) is > 50 nM; the “IC50, in vitro cytotoxicity (WST-8, 5 days), KB cells, ADC” value (from here on “IC50 … KB cells, ADC”) came to 0.2 nM; the “IC50, in vitro cytotoxicity (WST-8, 5 days), SKOV-6 cells, +Block” value (shortened to “IC50 … SKOV-6 cells, +Block”) worked out at 10 nM; the “IC50, in vitro cytotoxicity (WST-8, 5 days), SKOV-6 cells, ADC” value (shortened to “IC50 … SKOV-6 cells, ADC”) was 0.9 nM.

B2: M9346A-sGMBS-LDL-DM (conjugate 17c) (antibody, human IgG1, kappa, V domains shown)
VH: B1 VH
VL: B1 VL
modifications: maytansinoid LDL-DM (compound 14c, L-Ala-D-Ala-L-Ala) linked through sulfo-GMBS to antibody amines, 3.7 mol LDL-DM/mol antibody
Consider B2, for which the “IC50 … Igrov-1 cells, +Block” value was > 50 nM; the “IC50 … Igrov-1 cells, ADC” value turned out to be 7 nM; the “IC50 … Jeg-3 cells, +Block” value was > 50 nM; the “IC50 … Jeg-3 cells, ADC” value stood at 0.6 nM. Also, the “IC50 … KB cells, +Block” value was > 50 nM; the “IC50 … KB cells, ADC” value came to 0.3 nM; the “IC50 … SKOV-6 cells, +Block” value is > 50 nM; the “IC50 … SKOV-6 cells, ADC” value is > 10 nM.

B3: conjugate 17g (antibody, human IgG1, kappa, V domains shown)
VH: B1 VH
VL: B1 VL
modifications: thio-peptide-maytansinoid 14g linked through sulfo-GMBS to antibody amines (Example 4)
Regarding B3, the “IC50 … Igrov-1 cells, +Block” value was > 50 nM; the “IC50 … Igrov-1 cells, ADC” value came out at 3 nM; the “IC50 … Jeg-3 cells, +Block” value was > 50 nM; the “IC50 … Jeg-3 cells, ADC” value came to 0.5 nM. Also, the “IC50 … KB cells, +Block” value was > 50 nM; the “IC50 … KB cells, ADC” value worked out at 0.3 nM; the “IC50 … SKOV-6 cells, +Block” value is > 50 nM; the “IC50 … SKOV-6 cells, ADC” value is > 10 nM.

B4: conjugate 17i (antibody, human IgG1, kappa, V domains shown)
VH: B1 VH
VL: B1 VL
modifications: thio-peptide-maytansinoid 14i linked through sulfo-GMBS to antibody amines (Example 4)
B4: the “IC50 … Igrov-1 cells, +Block” value is > 50 nM; the “IC50 … Igrov-1 cells, ADC” value was 50 nM; the “IC50 … Jeg-3 cells, +Block” value was > 50 nM; the “IC50 … Jeg-3 cells, ADC” value was 0.7 nM. The “IC50 … KB cells, +Block” value was > 50 nM; the “IC50 … KB cells, ADC” value was found to be 0.3 nM; the “IC50 … SKOV-6 cells, +Block” value was > 50 nM; the “IC50 … SKOV-6 cells, ADC” value was > 10 nM.

B5: conjugate 17h (antibody, human IgG1, kappa, V domains shown)
VH: B1 VH
VL: B1 VL
modifications: thio-peptide-maytansinoid 14h linked through sulfo-GMBS to antibody amines (Example 4)
As to B5, the “IC50 … Igrov-1 cells, +Block” value was > 50 nM; the “IC50 … Igrov-1 cells, ADC” value stood at 30 nM; the “IC50 … Jeg-3 cells, +Block” value is > 50 nM; the “IC50 … Jeg-3 cells, ADC” value was found to be 0.5 nM. Also, the “IC50 … KB cells, +Block” value was > 50 nM; the “IC50 … KB cells, ADC” value came out at 0.4 nM; the “IC50 … SKOV-6 cells, +Block” value is > 50 nM; the “IC50 … SKOV-6 cells, ADC” value was > 10 nM.
